Tests used:
[1] = target: CD3 (CD3/TCR complex) on CD4+ and CD8+ T cells of patients (human) (UniProt P07766); assay: flow cytometry of CD4+ T cells, anti-human IgG; Example 4 Cohort C, end of 0.2 mg infusion
[2] = target: CD3 (CD3/TCR complex) on CD4+ and CD8+ T cells of patients (human) (UniProt P07766); assay: flow cytometry of CD4+ T cells, anti-human IgG; Example 3 Cohort 3, end of 0.5 mg infusion
[3] = target: CD3 (CD3/TCR complex) on CD4+ and CD8+ T cells of patients (human) (UniProt P07766); assay: flow cytometry of CD4+ T cells, free CD3 sites by biotinylated TRX4; Example 4 Cohort C, 0.3 mg
[4] = target: CD3 (CD3/TCR complex) on CD4+ and CD8+ T cells of patients (human) (UniProt P07766); assay: flow cytometry of CD4+ T cells, free CD3 sites by biotinylated TRX4; Example 4 Cohort A*, 0.1 mg
[5] = target: CD3 (CD3/TCR complex) on CD4+ and CD8+ T cells of patients (human) (UniProt P07766); assay: flow cytometry of CD4+ T cells, anti-human IgG; Example 4 Cohort A*, end of 0.05 mg infusion
[6] = target: CD3 (CD3/TCR complex) on CD4+ and CD8+ T cells of patients (human) (UniProt P07766); assay: flow cytometry of CD4+ T cells, anti-human IgG; Example 4 Cohort A, end of 0.3 mg infusion
[7] = target: CD3 (CD3/TCR complex) on CD4+ and CD8+ T cells of patients (human) (UniProt P07766); assay: flow cytometry of CD4+ T cells, anti-human IgG; Example 3 Cohort 3, end of 0.1 mg infusion
[8] = target: CD3 (CD3/TCR complex) on CD4+ and CD8+ T cells of patients (human) (UniProt P07766); assay: flow cytometry of CD4+ T cells, anti-human IgG; Example 4 Cohort C, about 24 hours after 1.0 mg infusion
[9] = target: CD3 (CD3/TCR complex) on CD4+ and CD8+ T cells of patients (human) (UniProt P07766); assay: flow cytometry of CD4+ T cells, anti-human IgG; Example 4 Cohort A*, end of 0.1 mg infusion
[10] = target: CD3 (CD3/TCR complex) on CD4+ and CD8+ T cells of patients (human) (UniProt P07766); assay: flow cytometry of CD4+ T cells, anti-human IgG; Example 4 Cohort B, end of 0.3 mg infusion
[11] = target: CD3 (CD3/TCR complex) on CD4+ and CD8+ T cells of patients (human) (UniProt P07766); assay: flow cytometry of CD4+ T cells, free CD3 sites by biotinylated TRX4; Example 3 Cohort 2, second 0.5 mg dose
[12] = target: CD3 (CD3/TCR complex) on CD4+ and CD8+ T cells of patients (human) (UniProt P07766)
[13] = target: CD3 (CD3/TCR complex) on CD4+ and CD8+ T cells of patients (human) (UniProt P07766); assay: flow cytometry of CD4+ T cells, anti-human IgG; Example 4 Cohort A, end of 0.1 mg infusion
[14] = target: CD3 (CD3/TCR complex) on CD4+ and CD8+ T cells of patients (human) (UniProt P07766); assay: flow cytometry of CD4+ T cells, free CD3 sites by biotinylated TRX4; Example 4 Cohort A, day after last infusion
[15] = target: CD3 (CD3/TCR complex) on CD4+ and CD8+ T cells of patients (human) (UniProt P07766); assay: flow cytometry of CD4+ T cells, free CD3 sites by biotinylated TRX4; Example 4 Cohort A, 2 hours after last infusion
[16] = target: CD3 (CD3/TCR complex) on CD4+ and CD8+ T cells of patients (human) (UniProt P07766); assay: flow cytometry of CD4+ T cells, anti-human IgG; Example 3 Cohort 2 (0.5 mg x3), end of infusion
[17] = target: CD3 (CD3/TCR complex) on CD4+ and CD8+ T cells of patients (human) (UniProt P07766); assay: flow cytometry of CD4+ T cells, anti-human IgG; Example 4 Cohort B, 2 hours after 0.75 mg infusion
[18] = target: CD3 (CD3/TCR complex) on CD4+ and CD8+ T cells of patients (human) (UniProt P07766); assay: flow cytometry of CD4+ T cells, free CD3 sites by biotinylated TRX4; Example 4 Cohort A*, 0.25 mg
[19] = target: CD3 (CD3/TCR complex) on CD4+ and CD8+ T cells of patients (human) (UniProt P07766); assay: flow cytometry of CD4+ T cells, free CD3 sites by biotinylated TRX4; Example 4 Cohort A*, 0.15 mg
[20] = target: CD3 (CD3/TCR complex) on CD4+ and CD8+ T cells of patients (human) (UniProt P07766); assay: flow cytometry of CD4+ T cells, anti-human IgG; Example 4 Cohort C, end of 0.1 mg infusion
[21] = target: CD3 (CD3/TCR complex) on CD4+ and CD8+ T cells of patients (human) (UniProt P07766); assay: flow cytometry of CD4+ T cells, free CD3 sites by biotinylated TRX4; Example 4 Cohort B, Day 5
[22] = target: CD3 (CD3/TCR complex) on CD4+ and CD8+ T cells of patients (human) (UniProt P07766); assay: flow cytometry, free sites by biotinylated TRX4; Example 4, 4-dose cohorts, after doses of 0.5 mg and higher
[23] = target: CD3 (CD3/TCR complex) on CD4+ and CD8+ T cells of patients (human) (UniProt P07766); assay: flow cytometry of CD4+ T cells, free CD3 sites by biotinylated TRX4; Example 3 Cohort 3, 0.5 mg, end of infusion
[24] = target: CD3 (CD3/TCR complex) on CD4+ and CD8+ T cells of patients (human) (UniProt P07766); assay: flow cytometry of CD4+ T cells, free CD3 sites by biotinylated TRX4; Example 4 Cohort C, 0.1 mg
[25] = target: CD3 (CD3/TCR complex) on CD4+ and CD8+ T cells of patients (human) (UniProt P07766); assay: flow cytometry of CD4+ T cells, free CD3 sites by biotinylated TRX4; Example 4 Cohort A, 0.3 mg

Sequence of UniProt P07766 (P07766 23-207, chain 1 of 3): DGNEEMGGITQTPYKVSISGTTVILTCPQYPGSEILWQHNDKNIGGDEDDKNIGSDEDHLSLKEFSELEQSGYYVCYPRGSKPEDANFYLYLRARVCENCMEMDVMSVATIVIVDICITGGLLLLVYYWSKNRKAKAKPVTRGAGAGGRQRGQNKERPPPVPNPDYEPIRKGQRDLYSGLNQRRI
Sequence of UniProt P07766 (chain, as listed by the source, chain 2 of 3): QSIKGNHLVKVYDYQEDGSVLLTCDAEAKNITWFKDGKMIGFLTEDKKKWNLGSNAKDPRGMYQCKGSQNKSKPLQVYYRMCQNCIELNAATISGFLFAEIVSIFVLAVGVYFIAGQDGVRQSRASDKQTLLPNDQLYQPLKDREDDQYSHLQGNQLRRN
Sequence of UniProt P07766 (chain, as listed by the source, chain 3 of 3): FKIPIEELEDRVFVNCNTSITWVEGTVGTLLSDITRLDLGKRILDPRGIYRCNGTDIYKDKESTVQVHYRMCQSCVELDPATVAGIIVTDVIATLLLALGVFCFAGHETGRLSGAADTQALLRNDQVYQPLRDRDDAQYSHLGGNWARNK

## TRX4 antibody
[1]
  cell-bound TRX4 (MESF of anti-human IgG): 1.2e+06 MESF units
[2]
  cell-bound TRX4 (MESF of anti-human IgG): 800000 MESF units
[3]
  percent saturation of CD3: 99%
[4]
  percent saturation of CD3: 70%
[5]
  cell-bound TRX4 (MESF of anti-human IgG): 300000 MESF units
[6]
  cell-bound TRX4 (MESF of anti-human IgG): 600000 MESF units
[7]
  cell-bound TRX4 (MESF of anti-human IgG): 100000 MESF units
[8]
  cell-bound TRX4 (MESF of anti-human IgG): 200000 MESF units
[9]
  cell-bound TRX4 (MESF of anti-human IgG): 700000 MESF units
[10]
  cell-bound TRX4 (MESF of anti-human IgG): 420000 MESF units
[11]
  percent saturation of CD3: 80%
[12]
  CD3/TCR modulation (decrease in MESF of TCR αβ on T cells, stained with non-competing antibody BMA031): > 80%
[13]
  cell-bound TRX4 (MESF of anti-human IgG): 200000 MESF units
[14]
  percent saturation of CD3: 35%
[15]
  percent saturation of CD3: 60%
[16]
  cell-bound TRX4 (MESF of anti-human IgG): 600000 MESF units
[17]
  cell-bound TRX4 (MESF of anti-human IgG): 550000 MESF units
[18]
  percent saturation of CD3: 95%
[19]
  percent saturation of CD3: 80%
[20]
  cell-bound TRX4 (MESF of anti-human IgG): 800000 MESF units
[21]
  percent saturation of CD3: 40%
[22]
  percent saturation of CD3: > 90%
[23]
  percent saturation of CD3: 90%
[24]
  percent saturation of CD3: 50%
[25]
  percent saturation of CD3: 85%
